Assay results reported in a protein production outcome set (Wang et al. 2014).

Assay: label from the status in PepcDB records

Row | Sequence | protein production
1 | MRDILFIYLLTLGIKLYAYFLSGFTAILADAFHSVIDITMILILLLSERYAEKEADYQHPFGHEMARNVASLAVGVGFITFMFFELMKEGLLKVLHPASGYSNVEVALGAEVAVLALLVIAALISARRSGILNRTLLVESLNDSLSTLAAIVGVGLVWAGYPIFDGIATIAIAFIIFYNSFRLVRDNARLLIGMSPSEDFYRSVEDACLEIERVKGVHDMVGVYTGENSVHLDLHVTVDGAMTIEEADKLSVEIAEAIMAKHPEVKHISVHFCPHDGRRRKLY | failed
2 | MKNEPIYNLLNSINSPDDLRRLEVDQLPEVCDELRQDIIKELSCNPGHFAASLGTVELTVALHYVYNTPYDRIVWDVGHQAYGHKILTGRREAFSTNRKLGGIRPFPSPEESEYDTFTCGHASNSISAALGMAVAAAKKGDDQRHVIAIIGDGSMSGGLAFEGLNNSSTTPNNLLIILNDNDMAIDRSVGGMKQYLFNLTTSNRYNQLRFKASRLLFKLGILNDERRKALIRFGNSLKSMAAQQQNIFEGMNIRYFGPIDGHDIKNLSRVLRDIKDLKGPKILHLHTIKGKGFAPAEKHATEWHAPGKFDPVTGERFVANTEGMPPLFQDVFGNTLVELAEANPRIVGVTPAMPSGCSMNILMSKMPKRAFDVGIAEGHAVTFSGGMAKDGLQPFCNIYSSFMQRAYDNIIHDVAIQNLPVVLCLDRAGLVGEDGPTHHGAFDMAYLRPIPNLTIASPMNEHELRRLMYTAQLPDKGPFVLRYPRGRGVLVDWKCPLEEIPVGKGRKLKDGKDIAVISIGPIGNKARSAIARAESESGRSIAHYDLRFLKPLDEELLHEVGRTFRHIVTIEDGTIQGGMGSAVLEFMADHEYTPTVKRIGIPDKFVQHGTVAELYQLCGMDEDSLTKELLKQCELLPDMSKIKELTN | failed
3 | RESVEKQKKLEAILVSMDSGVIAVDRKHKIIMINPYAEKIFGIDKNIIGQSLMDCIRNYEFEDIFNKRAEGYAEIKTSWPKERNLRIKTADIINGYECIGTVAVVQDIT | failed
4 | MTTPPLRIGLIGAGYIAAWHADALRAVPGVKLTAVCDPNMDLAEGLAAAHGARAFGDLDDLIGAGLCDGVHILTPPDLHHPLALHCLRAGLHVLVEKPVALNAAQTQEIEDAARAANRRFHAGHNFLGLPSYTRLKREIRRGALGRVSGAEIRWCYPFGPLRAGPFGIWPLRDTRNLMLEFGPHLMSLVIDLFGLPEIEHVALSKPVALPGAGTRPQGWRILARAGEVELVLILSLVETADDRSVTIRGSSARARLDLAADTLVIDAENTADLVANPLLRQLSLARQHLVQGSVNAARQLTSFNRKSPYALSFRGLANGIWEPLAQNAPADPRWSGSSAVAVMTALDAVLERVDWPAPVPASPSRKPAPSAMVIGGTGFIGRALTRELVARGSDVRVISRGRQGSFADLPDQVETVSLSLRDTEGLARAMAGIDTVYNLARSTDSSWEDCLQNDVAVAEGIGKAALAAGVRRLVYTGTIASFDMSDPAATITDATPLPDEMDERNLYARSKAECERRLMALHRQSALPLVIARPGIVLGAGGPLQHWGIGRWHGAGAVRLWGNGRNPLPFVLIGDCVDGLIRCAEAEGIEGRAFNLVGPPILSARDYFDAIHDRLGARIRVSGGNLSLMYAADWVKFQLKTRVLGRSGLTRPSRADWLSRAHQSRFDISGARSALGWHPVSDADAFLTNAVDEAGLLGF | failed
5 | MPKFYCDYCDTYLTHDSPSVRKTHCSGRKHKENVKDYYQKWMEEQAQSLIDKTTAAFQQGK | not failed
6 | VAYLGPAGTFTEEALYKFADAGVFGDGEIEQLPAKSPQEAVDAVRHGTAQFAVVAIENFVDGPVTPTFDALDQGSNVQIIAEEELDIAFSIMVRPGTSLADVKTLATHPVGYQQVKNWMATTIPDAMYLSASSNGAGAQMVAEGTADAAAAPSRAAELFGLERLVDDVADVRGARTRFVAVQAQAA | failed
7 | MLNMQRLQTVLLQCAGWLLYMSLLMLIALALPADIFDSQSKHFIFLVGAVGIWRYSMGATHFIRGMIFLYGVYPYLRRKVQKMGNATDPSHVYLMVTSFRIEALTTAQVYSSVIREAINCGFPTTVVCSLVEMSDELLVKSLWAKYNPPAHVKLDIVRIAGTGKRDGLAYGFRAISRMLPDENAVVAVIDGDTVLADGVVRKTVPWFKLFPNVGGLTTNEFCEVRGGYIMSEWHKLRFAQRHINMCSMALSKRVLTMTGRMSMFRASVVTNPEFIADVESDSLMHWRLGRFKFLTGDDKSSWFSLMRLGYDTFYVPDAAINTVEHPPEKSFLKASRKLMYRWYGNNLRQNSRALGLGLRRLGLFTSIVLFDQRVSMWTSLLGLTVAVIASLKFGMAFLLVYLLWIGITRLILTIMLLCSGHNVGPAYPLILYYNQIIGALMKIYVFFRLDKQSWTRQPTALKRDLASFQQWFNTWSSRTMTFSAASIFVAVLFMVV | failed
8 | WFMPFDNWLYQLQNADPVEISSSGFEIAVIDYSKDGSESGEYSPEEIKIMVDAGVVPVAYVNIGQAEDYRFYWKESWYTNTPEWLGEEDPAWPGNYFVKYWYNEWKEIVFSYLDRVIDQGFKGIYLDRIDSFEYWAQEGVISRRSAARKMINFVLEIAEYVRERKPDMLIIPQNGENILDFDDGQLASTVSGWAVENLFYLKTIPLEENETKSRLEYLIRLNRKGKFILSVDYVDDGSDSFENISRILDYYEKAKRNGCIPYAARSDLELDEMNVIEGIQPPEALKDYESRTYR | not failed
9 | MSSCGCAYDILKYQLVIKGNRFNEESEQSMTETTENTVNLPYRNPKLPTEERIADLLGRMTLEEKVGQMMQLDARSGDLDDLIVNKHVGSILHTSPSDLPKAVETVNAKTRLGIPLVIGDDCIHGYSFWPGATIFPEQLGMATTWDSEKVQAAGRATAEEVSATGVHWTFSPVLCIARDTRWGRVGETFGEDPYLIGEMASSIVKGYQGGAKAGEPLAKDAILACAKHFAGYSETQGGRDASEADLSHRKLESWFLPPFERVAKEGCGTFMLGYESIEGVPVTFNKWLLSDKLRGAWNYQGTLITDWDNVGRSVWEQKVKPDYVQAAADAVKSGNDLVMTTPKFYEGAIEAVKTGLLDESLIDAAVARILALKFRLGLFEDPRLPDQKRIDAVIGSEEHQQLNLEVAREAVALLKNDGSLPFNVAGAKRIAVVGPLADDVQTQLGDWAGSSGQINWMPDGHPREMITTVLDGFKQLAPEGCEVVYSRGANIVDLVPDPEGEFYPDGQPRPKIGVSAKIDRALLGEAVENARKSDLIVAVVGDVIQAIGEGCSTATLELLGGQNALIDALSNVARETGKPFVVVLVSSKPQVLPASVIGTNGVIVDETPAEGTSALLWAPSPGMKGGQAIAEIILGETEPSGRLPITFPRHAGQLPVYYNQIRGQHGNRYADLTQNPAFAFGEGLSYTTFEYGDPTITNVPESGIFAETDTVHAEITLTNTGDRKGTEVVQLYIGDIVTSYSWTDRELKAFQRVELEPGKSKTVAFDIPVSDCTIVDSEANRIVEPGEFEVLIGHSSRREHLKRTTFTVA | failed
10 | MDAEKKSAHFRQISSYKPQLLVLSSIQENPSSKISEKANIKADNDAEIGVFGAEKYFSMKLDHVDSTADITKQHEKENTHDHPNANPNPNPNPHPHPHPQLTKTTSSRSKTSRHGTPSVRSESSCNSQTFLMRINNHNENKQRKMNDTSISFGGFRCYGPCSGVKTVHTDPKNSCKSRNSDRDFVAYDARKHNDKPRLHFEAKKADFHAQEKISLPIQRSDIAMNLERKLSLLTWDAIPNQLSTKNNNHNNNGNNSSMSSNTQEEETASVASSDLFEIENITSSVYEPSEASIGWSVVTGSMADQSVISDFDMMKRVTRNGPVVKTKPVIGEKVRSAGFLSGCKSHKAVSVVDSSRKVKETAKVDHHEMSHQKKFKTEIRIQDLSFL | failed
11 | MTLVTALIVLLVVLGVFFTLVAAVGVLRLPDVYTRSHAATKADTLGAGFAIAAVGLYFGTAGELVRAGLLLVFIYVTNPTAAHAITRAAYSQDVDVWTVDDNDTGTDTASAADGGDSQ | failed
12 | MRVDLNSDLGESFGRYKLGLDEEVMKYITSANVACGWHAGDPLVMRKTVRLAKENDVQVGAHPGYPDLMGFGRRYMKLTPEEARNYILYQVGALYAFAKAEGLELQHVKPHGALYNAMVKEEDLARAVIEGILDFDKDLILVTLSNSRVADIAEEMGLKVAHEVFADRAYNPDGTLVPRGRPGAVIEDKEEIAERVISMVKDGGIRAINGEWVDLKVDTICVHGDNPKAVEITSYIRKVLEEEGVKIVPMKEFIR | not failed
